Measurements taken from publication PMC3336217, “^111In-Labeled Cystine-Knot Peptides Based on the Agouti-Related Protein for Targeting Tumor Angiogenesis” (Journal of Biomedicine and Biotechnology, 2012).
Positions of bridges follow the written chain, without caps; N, C: chain ends. Residues, ends and D or L forms follow the SMILES beside them. *: point of attachment. DOTA = O=C(O)CN1CCN(CC(=O)O)CCN(CC(=O)*)CCN(CC(=O)O)CC1

Key:
in vivo = conditions: female, athymic nu/nu, mouse, iv, total radioactivity
Protocol: All animal studies were carried out in compliance with federal and local institutional rules for animal experimentation. Approximately, 10^7 U87MG cells were suspended in PBS and subcutaneously implanted in the left shoulders of female athymic nu/nu mice. Tumors were allowed to grow to a size of 0.5 cm (2-3 weeks) before imaging experiments were performed. For biodistribution studies, U87MG tumor-bearing mice (n = 3 for each group) were injected with ^111In-DOTA-AgRP-7C (0.259–0.37 MBq, […]) or ^111In-DOTA-AgRP-6E (0.296–0.444 MBq, 8–12 μCi) via the tail vein and sacrificed at different time points (0.5, 2, 24, and 48 h) after injection (p.i.). Tumor and normal tissues of interest were removed and weighed, and their radioactivity was measured with a γ-counter. Radioactivity uptake was expressed as the percent injected dose per gram of tissue (%ID/g). To test the in vivo αvβ3 integrin targeting specificity of the probe, U87MG tumor-bearing mice (n = 3 for each group) were injected via the tail vein with a mixture of ^111In-DOTA-AgRP-7C (0.259–0.37 MBq, 7–10 μCi) and 330 μg of c(RGDyK). The mice were sacrificed at 2 h p.i. and the biodistribution of the radiolabeled peptide was measured as above.
Quantitative data were expressed as mean ± SD. Means were compared using the Student t-test. A 95% confidence level was chosen to determine the significance between groups, with P values of less than 0.05 indicating significant differences.

in vitro = in vitro ADME; conditions: mouse, serum
Protocol: Radiolabeled AgRP* peptides were incubated in 0.01 M PBS (pH 7.4) at 37°C for 24 h and monitored for degradation by HPLC. Stability was also tested by incubating 0.74 MBq (20 μCi) ^111In-DOTA-AgRP-7C or ^111In-DOTA-AgRP-6E in 400 μL of mouse serum at 37°C for 2 h. Afterward, the mixture was re-suspended in 0.5 mL of DMF containing 5 μL of Triton X-100 and centrifuged at 16,000 g for 2 min. The supernatant, which contained >95% of the starting radioactivity, was filtered using a 10 K NanoSep device (Pall Corporation, East Hills, NY, USA). Greater than 99% of the radioactive material passed through this filter. The samples were analyzed by radio-HPLC, and the percentage of intact peptide was determined by quantifying peaks corresponding to the intact peptide and to the degradation products.
Figure 1 Stability analysis of ^111In-DOTA-AgRP-7C (a) and (b), and ^111In-DOTA-AgRP-6E (c) and (d) in PBS and mouse serum. The two radiopeptides were incubated with PBS for 24 h at […], and mouse serum for 2 h at 37°C.

CC(C)C[C@@H]1NC(=O)[C@@H]2CSSC[C@@H]3NC(=O)[C@H]([C@@H](C)O)NC(=O)[C@H](C)NC(=O)[C@H](C)NC(=O)[C@@H]4CCCN4C(=O)[C@H](CC(=O)O)NC(=O)[C@H](CSSC[C@H](NC(=O)CNC(=O)CN4CCN(CC(=O)O)CCN(CC(=O)O)CCN(CC(=O)O)CC4)C(=O)N[C@@H](C(C)C)C(=O)N[C@@H](CCCNC(=N)N)C(=O)N[C@@H](CC(C)C)C(=O)N[C@@H](Cc4c[nH]cn4)C(=O)N[C@@H](CCC(=O)O)C(=O)N[C@@H](CO)C(=O)N2)NC(=O)[C@H](CSSC[C@@H](C(=O)N[C@@H](CCCNC(=N)N)C(=O)O)NC(=O)[C@H](Cc2ccc(O)cc2)NC(=O)[C@@H]2CSSC[C@H](NC(=O)[C@H](Cc4ccc(O)cc4)NC3=O)C(=O)N[C@@H](C(C)C)C(=O)N[C@@H](CCC(=O)O)C(=O)N[C@@H](CCCNC(=N)N)C(=O)NCC(=O)N[C@@H](CC(=O)O)C(=O)NCC(=O)N[C@@H](CC(N)=O)C(=O)N[C@@H](CCCNC(=N)N)C(=O)N[C@@H](CCCNC(=N)N)C(=O)N2)NC(=O)[C@@H]2CCCN2C(=O)[C@H](C(C)C)NC(=O)[C@H](CCC(N)=O)NC(=O)[C@H](CCC(N)=O)NC(=O)CNC1=O [111In-DOTA-AgRP-6E, metal not drawn] ({DOTA}-GCVRLHESCLGQQVPCCDPAATCYCVERGDGNRRCYCR-OH; disulfide 2-17, 9-23, 16-37, 25-35)
tissue uptake at 0.5 h (in vivo; Blood uptake): 1.27 ± 0.53 %ID/g
tissue uptake at 2 h (in vivo; Blood uptake): 0.06 ± 0.05 %ID/g
tissue uptake at 24 h (in vivo; Blood uptake): 0.01 %ID/g
tissue uptake at 0.5 h (in vivo; Bone uptake): 1.18 ± 0.15 %ID/g
tissue uptake at 2 h (in vivo; Bone uptake): 0.56 ± 0.1 %ID/g
tissue uptake at 24 h (in vivo; Bone uptake): 0.36 ± 0.04 %ID/g
tissue uptake at 0.5 h (in vivo; Brain uptake): 0.06 ± 0.01 %ID/g
tissue uptake at 2 h (in vivo; Brain uptake): 0.02 ± 0.01 %ID/g
tissue uptake at 24 h (in vivo; Brain uptake): 0.02 ± 0.01 %ID/g
tissue uptake at 0.5 h (in vivo; Heart uptake): 0.8 ± 0.24 %ID/g
tissue uptake at 2 h (in vivo; Heart uptake): 0.18 ± 0.06 %ID/g
tissue uptake at 24 h (in vivo; Heart uptake): 0.12 ± 0.02 %ID/g
tissue uptake at 0.5 h (in vivo; Intestine uptake): 2.04 ± 0.54 %ID/g
tissue uptake at 2 h (in vivo; Intestine uptake): 1.13 ± 0.14 %ID/g
tissue uptake at 24 h (in vivo; Intestine uptake): 0.93 ± 0.04 %ID/g
tissue uptake at 0.5 h (in vivo; Kidneys uptake): 15.4 ± 3.19 %ID/g
tissue uptake at 2 h (in vivo; Kidneys uptake): 14.7 ± 1.98 %ID/g
tissue uptake at 24 h (in vivo; Kidneys uptake): 6.87 ± 1.19 %ID/g
tissue uptake at 0.5 h (in vivo; Liver uptake): 0.87 ± 0.2 %ID/g
tissue uptake at 2 h (in vivo; Liver uptake): 0.52 ± 0.01 %ID/g
tissue uptake at 24 h (in vivo; Liver uptake): 0.48 ± 0.02 %ID/g
tissue uptake at 0.5 h (in vivo; Lung uptake): 1.86 ± 0.56 %ID/g
tissue uptake at 2 h (in vivo; Lung uptake): 0.54 ± 0.12 %ID/g
tissue uptake at 24 h (in vivo; Lung uptake): 0.27 ± 0.02 %ID/g
tissue uptake at 0.5 h (in vivo; Muscle uptake): 0.64 ± 0.09 %ID/g
tissue uptake at 2 h (in vivo; Muscle uptake): 0.15 ± 0.07 %ID/g
tissue uptake at 24 h (in vivo; Muscle uptake): 0.07 ± 0.01 %ID/g
tissue uptake at 0.5 h (in vivo; Pancreas uptake): 0.57 ± 0.23 %ID/g
tissue uptake at 2 h (in vivo; Pancreas uptake): 0.2 ± 0.06 %ID/g
tissue uptake at 24 h (in vivo; Pancreas uptake): 0.14 ± 0.01 %ID/g
tissue uptake at 0.5 h (in vivo; Spleen uptake): 1.36 ± 0.26 %ID/g
tissue uptake at 2 h (in vivo; Spleen uptake): 0.83 ± 0.05 %ID/g
tissue uptake at 24 h (in vivo; Spleen uptake): 0.65 ± 0.06 %ID/g
tissue uptake at 0.5 h (in vivo; Stomach uptake): 2.02 ± 0.47 %ID/g
tissue uptake at 2 h (in vivo; Stomach uptake): 0.87 ± 0.14 %ID/g
tissue uptake at 24 h (in vivo; Stomach uptake): 0.53 ± 0.02 %ID/g
tissue uptake at 0.5 h (in vivo; Tumor uptake): 1.76 ± 0.34 %ID/g
tissue uptake at 2 h (in vivo; Tumor uptake): 1.21 ± 0.21 %ID/g
tissue uptake at 24 h (in vivo; Tumor uptake): 0.89 ± 0.06 %ID/g
tissue to tissue ratio at 0.5 h (in vivo; Tumor-to-blood ratio): 1.71 ± 1.21
tissue to tissue ratio at 2 h (in vivo; Tumor-to-blood ratio): 33 ± 23.3
tissue to tissue ratio at 24 h (in vivo; Tumor-to-blood ratio): 142 ± 3.39
tissue to tissue ratio at 0.5 h (in vivo; Tumor-to-muscle ratio): 2.75 ± 0.28
tissue to tissue ratio at 2 h (in vivo; Tumor-to-muscle ratio): 9.2 ± 3.88
tissue to tissue ratio at 24 h (in vivo; Tumor-to-muscle ratio): 13.1 ± 1.94
remaining at 2 h, 1.85 MBq/mL (in vitro): > 95%
